Experimental data: publication doi:10.1101/2023.12.21.572918 (bioRxiv, 2023)

Target: full length native GPC (strain Josiah) expressed on HEK293 cells (Lassa virus, strain Josiah, UniProt P08669)
Experiment: flow cytometry on cells
Details: one partner purified

Chain of full length native GPC (strain Josiah) expressed on HEK293 cells (P08669 whole entry, looked up): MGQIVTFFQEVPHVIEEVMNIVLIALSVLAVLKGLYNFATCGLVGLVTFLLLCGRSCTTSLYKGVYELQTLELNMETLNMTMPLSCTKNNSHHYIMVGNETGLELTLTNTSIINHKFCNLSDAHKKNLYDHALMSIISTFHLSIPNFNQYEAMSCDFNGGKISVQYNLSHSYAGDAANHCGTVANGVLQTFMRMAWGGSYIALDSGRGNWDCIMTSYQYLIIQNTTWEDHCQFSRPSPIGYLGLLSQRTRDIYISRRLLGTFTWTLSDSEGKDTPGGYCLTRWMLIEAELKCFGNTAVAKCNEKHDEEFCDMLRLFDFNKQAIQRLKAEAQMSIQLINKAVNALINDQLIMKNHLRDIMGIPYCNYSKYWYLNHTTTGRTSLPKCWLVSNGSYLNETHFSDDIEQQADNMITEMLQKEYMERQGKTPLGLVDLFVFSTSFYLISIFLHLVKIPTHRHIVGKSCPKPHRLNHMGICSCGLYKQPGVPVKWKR

B1: 25.10C IgG (antibody, V domains shown)
VH: QVQLQESGGGLVKPGGSLRLSCTASGFNFNKYNMNWVRQAPGKGLEWVSSISALSTYIYYADSLKGRFTVSRDNAKNSLFLQMNSLRDDDTAVYYCAREIRRASTWSADLWGRGTLVTVSS
VL: DIQMTQSPSSLSASVGDRVIITCRASQSISSSLNWYQQKPGKAPKLLIYAAVNLETGVPSRFSGSGFGTDFTLAISNVQPEDFATYYCQQSDTRTFGRGTKLDVK
  binding result: binds
